The target in the assay is N-biotinylated HapB (Aspergillus nidulans, biotin (N-biotinylated)). The assay can be described thus: SPR.

B1: HapC/HapE heterodimer (wild-type HapC) (complex)
chain 1: MSSTSPSKEPEVEQEPQSGEEHEQMDKEQDNQTQGQGEFEVKEQDRWLPIANVARIMKLALPENAKIAKEAKECMQECVSEFISFITSEASEKCQQEKRKTVNGEDILFAMTSLGFENYAEALKIYLSKYRETQSARGEHQNRPPSSGYAGGGPVGGAASGPSVVRAGGAAAGGAFPEASDNAGSIMNQGLDPSEQDASAYGYPPMVGQGHNGAGGESY
chain 2: MEQAQQTSGQQQGRQQPVYDTRQGGHYGASAALAAQGFAPVAELYTGTWANVNQGLQGTARDILTTYWQHVINHLESDNHDYKIHQLPLARIKKVMKADPEVKMISAEAPILFAKGCDVFITELTMRAWIHAEDNKRRTLQRSDIAAALSKSDMFDFLIDIVPREEATSHAKRSSQSAGAPAGPGGPTAAGQLPQTQHGVQHHPHHMAPPDYGALGQHPLQDQEYRQQTMYGGAVQSDPTAAYAQPQTQMFEGMYTAYPHLPPQQ
For the molecule B1, the dissociation constant (Kd) came to 35.3 nM.

For the origin of these results see PMC2831313 (Nucleic Acids Research, 2009).
